Test results published in PMC6867900, “The Cyclic AMP Receptor Protein Regulates Quorum Sensing and Global Gene Expression in Yersinia pestis during Planktonic Growth and Growth in Biofilms” (mBio, 2019).

Target: the molecule itself
Experiment: crystal structure

B1: Yersinia pestis cyclic AMP (cAMP) receptor protein (Crp) (natural protein)
chain: MVLGKPQTDPTLEWFLSHCHIHKYPSKSTLIHQGEKAETLYYIVKGSVAVLIKDEEGKEMILSYLNQGDFIGELGLFEEGQERSAWVRAKTACEVAEISYKKFRQLIQVNPDILMRLSSQMANRLQITSEKVGNLAFLDVTGRIAQTLLNLAKQPDAMTHPDGMQIKITRQEIGQIVGCSRETVGRILKMLEDQNLISAHGKTIVVYGTR
notes: also called Y. pestis Crp
stoichiometry N: 2
